# Laboratory results: paper PMC2173498 (The Journal of Cell Biology, 2002)
# B1: Nucleoplasmin-M9 (other)
# chain: MASTVSNTSKLEKPVSLIWGCELNEQDKTFEFKVEDDEEKCEHQLALRTVCLGDKAKDEFNIVEIVTQEEGAEKSVPIATLKPSILPMATMVGIELTPPVTFRLKAGSGPLYISGQHVAMEEDYSWAEEEDEGEAEGEEEEEEEEDQESFGNYNNQSSNFGPMKGGNFGGRSSGPYGGGGQYFAKPRNQGGYG
# Biological target: the molecule itself
# Experiment: SEC
protein,measurement,value
B1,stoichiometry N,10
